In US20150232572A1 (UNIVERSIT DE LI GE, published 2015):

Assays:
[1] = target: T1, recombinant MT1-MMP (MMP14) catalytic domain (UniProt P50281 112-284, limits assumed); assay: ELISA
T1 construct: domain: catalytic domain

[2] = target: T2, recombinant MT3-MMP (MMP16) catalytic domain (UniProt P51512 120-292, limits assumed); assay: ELISA
T2 construct: domain: catalytic domain

[3] = target: T3, recombinant MMP2 catalytic domain (UniProt P08253 110-452, limits assumed); assay: Western blot
T3 construct: domain: catalytic domain
T3 sequence (P08253 110-452 limits assumed): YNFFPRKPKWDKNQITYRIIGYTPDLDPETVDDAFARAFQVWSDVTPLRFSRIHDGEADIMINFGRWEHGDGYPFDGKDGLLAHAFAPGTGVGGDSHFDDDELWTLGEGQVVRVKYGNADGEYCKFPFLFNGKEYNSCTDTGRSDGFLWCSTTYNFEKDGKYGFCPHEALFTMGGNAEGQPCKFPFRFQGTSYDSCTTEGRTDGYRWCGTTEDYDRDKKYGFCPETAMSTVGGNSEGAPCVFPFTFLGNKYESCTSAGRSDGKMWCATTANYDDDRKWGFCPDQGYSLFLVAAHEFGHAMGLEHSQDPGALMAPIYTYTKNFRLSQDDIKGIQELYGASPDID

T2 sequence (P51512 120-292 limits assumed): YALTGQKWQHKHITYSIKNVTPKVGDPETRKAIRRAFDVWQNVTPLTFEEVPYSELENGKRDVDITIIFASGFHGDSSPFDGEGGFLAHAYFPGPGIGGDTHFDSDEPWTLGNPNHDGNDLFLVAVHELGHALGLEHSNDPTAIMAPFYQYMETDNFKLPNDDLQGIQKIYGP

B1: K4H7 scFv antibody (scFv)
scFv: QVQLVQSGGGLVKPGRSLRLSCTASGFTFGDYAMSWFRQAPGKGLEWVGFIRSKAYGGTTEYAASVKGRFTISRDDSKSIAYLQMNSLKTEDTAVYYCTRGSSGWFLNWFDPWGQGTLVTVSSLEGGGGSGGGGSGGGGSELETTLTQSPATLSLSPGERATLSCRASQSISSSYLAWYQHKPGQAPRLLIYGASRRATGIPDRFSGSGSGTDFSLTISRLEPEDFAVYYCLHYGSSKWTFGQGTKVEIKR
notes: Human scFv from the VTT naive phage display libraries; Purified scFv clones contain a myc tag (produced as soluble scFv-myc-his fusions); also called K4H7 clone; scFV clone K4H7
[1]
  binding result: no binding (tested: 3 µg of recombinant protein)
[2]
  binding result: no binding (tested: 3 µg of recombinant protein)
[3]
  binding result: no binding (tested: scFv 1 µg/ml)
